Laboratory results from publication PMC10684670.

B1: rhB7-H6-hFc recombinant protein, wild type [modified: N-linked glycans (removed on the plate by PNGase F in assay a2); N-linked glycans (removed on the plate by PNGase F in assay a2)] [human] / rhNKp30-his protein [human] (parent)
chain 1: LWVSQPPEIRTLEGSSAFLPCSFNASQGRLAIGSVTWFRDEVVPGKEVRNGTPEFRGRLAPLASSRFLHDHQAELHIRDVRGHDASIYVCRVEVLGLGVGTGNGTRLVVEKEHPQLG
chain 2: DLKVEMMAGGTQITPLNDNVTIFCNIFYSQPLNITSMGITWFWKSLTFDKEVKVFEFFGDHQEAFRPGAIVSPWRLKSGDASLRLPGIQLEEAGEYRCEVVVTPLKAQGTVQLEVVASPASRLLLDQVGMKENEDKYMCESSGFYPEAINITWEKQTQKFPHPIEISEDVITGPTIKNMDGTFNVTSCLKLNSSQEDPGTVYQCVVRHASLHTPLRSNFTLTAARHSLSETEKTDNFS
B2: B7-H6, wild type, stably expressed on B7-H6 knockout 293T cells [modified: N-linked glycans at N43, N57, N174, N208, N216 and N242; N-linked glycans at N43, N57, N174, N208, N216 and N242] [human] / rhNKp30-his protein [human] (parent)
chain 1: B1 chain 1
chain 2: DLKVEMMAGGTQITPLNDNVTIFCNIFYSQPLNITSMGITWFWKSLTFDKEVKVFEFFGDHQEAFRPGAIVSPWRLKSGDASLRLPGIQLEEAGEYRCEVVVTPLKAQGTVQLEVVASPASRLLLDQVGMKENEDKYMCESSGFYPEAINITWEKQTQKFPHPIEISEDVITGPTIKNMDGTFNVTSCLKLNSSQEDPGTVYQCVVRHASLHTPLRSNFTLTAARHSLSETEKTDNFSIHWWPISFIGVGLVLLIVLIPWKKICNKSSSAYTPLKCILKHWNSFDTQTLKKEHLIFFCTRAWPSYQLQDGEAWPPEGSVNINTIQQLDVFCRQEGKWSEVPYVQAFFALRDNPDLCQCCRIDPALLTVTSGKSIDDNSTKSEKQTPREHSDAVPDAPILPVSPIWEPPPATTSTTPVLSSQPPTLLLPLQ

Variants of: B1
Test: ELISA
Conditions: with rhNKp30-his protein [human]; no PNGase F pretreatment; read at the highest NKp30 conc. tested, 2 (unit not printed in this panel); parent: 1.7; read off a plot

Variant	response
chain 2 DLKVEMMAGGTQITPLNDNVTIFCNIFYSQPLQITSMGITWFWKSLTFDKEVKVFEFFGDHQEAFRPGAIVSPWRLKSGDASLRLPGIQLEEAGEYRCEVVVTPLKAQGTVQLEVVASPASRLLLDQVGMKENEDKYMCESSGFYPEAINITWEKQTQKFPHPIEISEDVITGPTIKNMDGTFNVTSCLKLNSSQEDPGTVYQCVVRHASLHTPLRSNFTLTAARHSLSETEKTDNFS [chain 2 N33Q]	1.5 OD

Same assay, conditions: with rhNKp30-his protein [human]; pretreated with denatured PNGase F; read at the highest NKp30 conc. tested, 2 (unit not printed in this panel); read off a plot

Variant	response
chain 2 DLKVEMMAGGTQITPLNDNVTIFCNIFYSQPLQITSMGITWFWKSLTFDKEVKVFEFFGDHQEAFRPGAIVSPWRLKSGDASLRLPGIQLEEAGEYRCEVVVTPLKAQGTVQLEVVASPASRLLLDQVGMKENEDKYMCESSGFYPEAINITWEKQTQKFPHPIEISEDVITGPTIKNMDGTFNVTSCLKLNSSQEDPGTVYQCVVRHASLHTPLRSNFTLTAARHSLSETEKTDNFS [chain 2 N33Q]	1.4 OD

Variants of: B2
Test: flow cytometry on cells
Conditions: with rhNKp30-his protein [human]; 293T cells stably expressing B7-H6, stained with his-tagged NKp30; parent: 1; read off a plot

Variant	ratio to parent
chain 2 DLKVEMMAGGTQITPLNDNVTIFCNIFYSQPLNITSMGITWFWKSLTFDKEVKVFEFFGDHQEAFRPGAIVSPWRLKSGDASLRLPGIQLEEAGEYRCEVVVTPLKAQGTVQLEVVASPASRLLLDQVGMKENEDKYMCESSGFYPEAINITWEKQTQKFPHPIEISEDVITGPTIKNMDGTFNVTSCLKLNSSQEDPGTVYQCVVRHASLHTPLRSQFTLTAARHSLSETEKTDNFSIHWWPISFIGVGLVLLIVLIPWKKICNKSSSAYTPLKCILKHWNSFDTQTLKKEHLIFFCTRAWPSYQLQDGEAWPPEGSVNINTIQQLDVFCRQEGKWSEVPYVQAFFALRDNPDLCQCCRIDPALLTVTSGKSIDDNSTKSEKQTPREHSDAVPDAPILPVSPIWEPPPATTSTTPVLSSQPPTLLLPLQ [chain 2 N218Q]	0.86
chain 2 DLKVEMMAGGTQITPLNDNVTIFCNIFYSQPLNITSMGITWFWKSLTFDKEVKVFEFFGDHQEAFRPGAIVSPWRLKSGDASLRLPGIQLEEAGEYRCEVVVTPLKAQGTVQLEVVASPASRLLLDQVGMKENEDKYMCESSGFYPEAIQITWEKQTQKFPHPIEISEDVITGPTIKNMDGTFNVTSCLKLNSSQEDPGTVYQCVVRHASLHTPLRSNFTLTAARHSLSETEKTDNFSIHWWPISFIGVGLVLLIVLIPWKKICNKSSSAYTPLKCILKHWNSFDTQTLKKEHLIFFCTRAWPSYQLQDGEAWPPEGSVNINTIQQLDVFCRQEGKWSEVPYVQAFFALRDNPDLCQCCRIDPALLTVTSGKSIDDNSTKSEKQTPREHSDAVPDAPILPVSPIWEPPPATTSTTPVLSSQPPTLLLPLQ [chain 2 N150Q]	0.8
chain 2 DLKVEMMAGGTQITPLNDNVTIFCNIFYSQPLNITSMGITWFWKSLTFDKEVKVFEFFGDHQEAFRPGAIVSPWRLKSGDASLRLPGIQLEEAGEYRCEVVVTPLKAQGTVQLEVVASPASRLLLDQVGMKENEDKYMCESSGFYPEAINITWEKQTQKFPHPIEISEDVITGPTIKNMDGTFNVTSCLKLQSSQEDPGTVYQCVVRHASLHTPLRSNFTLTAARHSLSETEKTDNFSIHWWPISFIGVGLVLLIVLIPWKKICNKSSSAYTPLKCILKHWNSFDTQTLKKEHLIFFCTRAWPSYQLQDGEAWPPEGSVNINTIQQLDVFCRQEGKWSEVPYVQAFFALRDNPDLCQCCRIDPALLTVTSGKSIDDNSTKSEKQTPREHSDAVPDAPILPVSPIWEPPPATTSTTPVLSSQPPTLLLPLQ [chain 2 N192Q]	0.42
chain 2 DLKVEMMAGGTQITPLNDNVTIFCNIFYSQPLNITSMGITWFWKSLTFDKEVKVFEFFGDHQEAFRPGAIVSPWRLKSGDASLRLPGIQLEEAGEYRCEVVVTPLKAQGTVQLEVVASPASRLLLDQVGMKENEDKYMCESSGFYPEAINITWEKQTQKFPHPIEISEDVITGPTIKNMDGTFQVTSCLKLNSSQEDPGTVYQCVVRHASLHTPLRSNFTLTAARHSLSETEKTDNFSIHWWPISFIGVGLVLLIVLIPWKKICNKSSSAYTPLKCILKHWNSFDTQTLKKEHLIFFCTRAWPSYQLQDGEAWPPEGSVNINTIQQLDVFCRQEGKWSEVPYVQAFFALRDNPDLCQCCRIDPALLTVTSGKSIDDNSTKSEKQTPREHSDAVPDAPILPVSPIWEPPPATTSTTPVLSSQPPTLLLPLQ [chain 2 N184Q]	0.22
chain 2 DLKVEMMAGGTQITPLNDQVTIFCNIFYSQPLNITSMGITWFWKSLTFDKEVKVFEFFGDHQEAFRPGAIVSPWRLKSGDASLRLPGIQLEEAGEYRCEVVVTPLKAQGTVQLEVVASPASRLLLDQVGMKENEDKYMCESSGFYPEAINITWEKQTQKFPHPIEISEDVITGPTIKNMDGTFNVTSCLKLNSSQEDPGTVYQCVVRHASLHTPLRSNFTLTAARHSLSETEKTDNFSIHWWPISFIGVGLVLLIVLIPWKKICNKSSSAYTPLKCILKHWNSFDTQTLKKEHLIFFCTRAWPSYQLQDGEAWPPEGSVNINTIQQLDVFCRQEGKWSEVPYVQAFFALRDNPDLCQCCRIDPALLTVTSGKSIDDNSTKSEKQTPREHSDAVPDAPILPVSPIWEPPPATTSTTPVLSSQPPTLLLPLQ [chain 2 N19Q]	0.14
chain 2 DLKVEMMAGGTQITPLNDNVTIFCNIFYSQPLQITSMGITWFWKSLTFDKEVKVFEFFGDHQEAFRPGAIVSPWRLKSGDASLRLPGIQLEEAGEYRCEVVVTPLKAQGTVQLEVVASPASRLLLDQVGMKENEDKYMCESSGFYPEAINITWEKQTQKFPHPIEISEDVITGPTIKNMDGTFNVTSCLKLNSSQEDPGTVYQCVVRHASLHTPLRSNFTLTAARHSLSETEKTDNFSIHWWPISFIGVGLVLLIVLIPWKKICNKSSSAYTPLKCILKHWNSFDTQTLKKEHLIFFCTRAWPSYQLQDGEAWPPEGSVNINTIQQLDVFCRQEGKWSEVPYVQAFFALRDNPDLCQCCRIDPALLTVTSGKSIDDNSTKSEKQTPREHSDAVPDAPILPVSPIWEPPPATTSTTPVLSSQPPTLLLPLQ [chain 2 N33Q]	0.57
